According to PMC11616004, “Metabolite phosphatase from anhydrobiotic tardigrades” (The Febs Journal, 2024):

Tests used:
DRB0118 = target: T1, DRB0118 (Deinococcus radiodurans, UniProt Q9RZK8); assay: malachite green phosphate release; format: biochemical; conditions: 1 mM substrate, 20 mM Tris-HCl pH 8.0, 37 °C, 1 h; MBP fusion
T1 construct: gene DR_B0118; residues 58-337, signal peptide removed; N-terminal MBP fusion kept, 6xHis cut by TEV; codon-optimized, E. coli BL21(DE3); mainly dimer in solution
T1 sequence (Q9RZK8 58-337): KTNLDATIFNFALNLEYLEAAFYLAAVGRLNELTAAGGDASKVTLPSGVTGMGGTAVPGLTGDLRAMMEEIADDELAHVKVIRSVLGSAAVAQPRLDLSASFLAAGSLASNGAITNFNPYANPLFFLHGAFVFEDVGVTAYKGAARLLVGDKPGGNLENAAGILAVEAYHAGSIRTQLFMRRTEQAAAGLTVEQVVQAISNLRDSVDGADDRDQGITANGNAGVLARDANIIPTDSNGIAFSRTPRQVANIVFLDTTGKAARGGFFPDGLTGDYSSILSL

[1] = target: the molecule itself; assay: crystal structure; sitting-drop vapor diffusion at 20 °C, RvFeMP‐1 at 10 mg/mL; conditions A (MES pH 6.0, PEG 20000), B (MgCl2, Tris–HCl pH 8.2, PEG 4000) and C (sodium thiocyanate, sodium acetate pH 4.0, PEG4000); dimer of two protomers
[2] = target: the molecule itself; assay: native gel or EMSA; high‐resolution clear native PAGE of the purified sample (EzApply Native, EzStandard Native, EzRun ClearNative, ATTO)

O=[N+]([O-])c1ccc(OP(=O)(O)O)cc1 [pNPP, p-nitrophenyl phosphate]
activity (nmol/min/mg) (DRB0118): can also function as a phosphatase and the activity toward pNPP was higher

B1: RvFeMP‐1 (Ramazzottius varieornatus Ferritin‐like metabolite phosphatase 1), residues 21–316 (enzyme)
chain: GGNRGMSRNQDAYAEKMDMTLDALNFLLGVEHLASAFYVQAVNNFTADDFKAAGLAQRDYDQFVGVRNNEVDHRDTLISVIKSLGGKPNPPCKYTFPVTDVASVLKVSRTLENADKPAYLGALRDIKSVELRTSVQGALSGDSAHAAFFAYLTGKAPAPGPVDGPLTQRHIATLAQDFIVSCPYPAPKPFPKLTLSPQSGPVGTVVATTCAQDVDTNGVMCAIISGNQGTLMQRPGQAKDGSGAATCTIPPGVKGILFIAWVRGRDVLNVGVDDSSTVCGPNYFLLSALGDAVPGV
notes: RvFeMP‐1 (RvY_06210 product) of Ramazzottius varieornatus strain YOKOZUNA‐1, residues 21–316, without the predicted 20-residue secretory signal peptide; After TEV cleavage one G of the recognition site probably stays at the N-terminus (surmised); also called RvY_06210 product; Tar‐fer; source: E. coli Shuffle T7, purified (HiTrap TALON, TEV protease, HisTrap flowthrough, Superdex 200 SEC); not …
binding result [1]: binds

B2: MBP‐DRB0118 (DRB0118 residues 58–337 fused to maltose‐binding protein) (enzyme, Deinococcus radiodurans R1)
chain: T1 sequence (Q9RZK8 58-337)
notes: DRB0118 of Deinococcus radiodurans R1, residues 58–337, without the signal peptide region; codon-optimised synthetic DNA; The MBP carrier (amplified from pMAL‐c5X) stands N-terminal of DRB0118 and was kept; After TEV cleavage one G of the site probably stays before MBP (surmised); source: E. coli BL21(DE3), purified (HiTrap TALON, TEV protease, HisTrap flowthrough, Superdex 200 SEC); not shown: …
stoichiometry N [2]: 2
